Assay: soluble on expression in E. coli; label from the status in PepcDB or PDB records

| Sequence | soluble on expression in E. coli |
| --- | --- |
| AAAMVPGRSESWERGEPGRPALYFCGSIRGGREDRTLYERIVSRLRRFGTVLTEHVAAAELGARGEEAAGGDRLIHEQDLEWLQQADVVVAEVTQPSLGVGYELGRAVAFNKRILCLFRPQSGRVLSAMIRGAADGSRFQVWDYEEGEVEALLDRYFEADPPGQV | not soluble |
| AACKFLRRKCTSDCVFAPYFPPEEPTKFANVHRIFGASNVSKILHEVAPHQREDAVNSLAYEAEARLKDPVYGCVGAISVLQRQVLRLQRELEETNADLMRYAGCLGGETTSAYGGRRG | not soluble |
| AAKRMKKRIKSATFFTTLLDFSQPGEVGAYINDTIISAIETQNNAKGYMDGRSLSVTFSLLRENSLYWNYYVDNYLKGNSPVDFDLLYWNSDSTNVSAASHNFLLRELYLENKLVQDKGVKIGGVWIDLNKIKIPSYFVSTKEDHIALWQGTYRGALHTGGNKTFVLGESGHIAGIVNHPAKNKYGYWLNDTLDDS | not soluble |
| ADCSSDLTSGISTKRIYYVAPNGNSSNNGSSFNAPMSFSAAMAAVNPGELILLKPGTYTIPYTQGKGNTITFNKSGKDGAPIYVAAANCGRAVFDFSFPDSQWVQASYGFYVTGDYWYFKGVEVTRAGYQGAYVIGSHNTFENTAFHHNRNTGLEINNGGSYNTVINSDAYRNYDPKKNGSMADGFGPKQKQGPGNRFVGCRAWENSDDGFDLFDSPQKVVIENSWAFRNGINYWNDSAFAGNGNGFKLGGNQAVGNHRITRSVAFGNVSKGFDQNNNAGGVTVINNTSYKNGINYGFGSNVQSGQKHYFRNNVSLSASVTVSNADAKSNSWDTGPAASASDFVSLDTSLATVSRDNDGTLPETSLFRLSANSKLINAGTKESNISYSGSAPDLGAFERN | soluble |
| ADEVAQTLAKVLTESSMPRENLLLSSFSHDVIRALYQHCEGYRLGVLSEFFTKKDGLLLDEVKAYSCNLNINWVRSRQIIKLQEAGYKVMCYTVNNPNKLKHLPQLDGIFSDHPKRFMQ | not soluble |
| AEDIFGELFNEANNFYIRANSLQDRIDRLAVKVTQLDSTVEEVSLQDINMKKAFKSSTVQDQQVVSKNSIPNPVADIYNQSDKPPPLNILTPYRDDKKDGLKFYTDPSYFFDLWKEKMLQDTEDKRKEKRRQKEQKRIDGTTREVKKVRKARNRRQEWNMMAYDKELRPDNRLSQSVYHGASSEGSLSPDTRSHASDVTDYSYPATPNHSLHPQPVTPSYAAGDVPPHGPASQAAEHEYRPPSASARHMALNRPQQPPPPPPPQAPEGSQASAPMAPADYGMLPAQIIEYYNPSGPPPPPPPPVIPSAQTAFVSPLQMPMQPPFPASASSTHAAPPHPPSTGLLVTAPPPPGPPPPPPGPPGPGSSLSSSPMHGPPVAEAKRQEPAQPPISDARSDLLAAIRMGIQLKKVQEQREQEAKREPVGNDVATILSRRIAVEYSDSDDDSEFDENDWSD | soluble |
| AEHSHESTLVQAGERIHITAQGVSAIETIDTRTISDAWQYRHLVVQNRPLTEVLDELNRHRRGHILYDRAQLQGIDMAVVLPLDDTDRALQLLVDSLPMIRIRTLTPYLVLVDLAPA | not soluble |
| AENDKPQYLSDWWHQSVNVVGSYHTRFGPQIRNDTYLEYEAFAKKDWFDFYGYADAPVFFGGNSDAKGIWNHGSPLFMEIEPRFSIDKLTNTDLSFGPFKEWYFANNYIYDMGRNKDGRQSTWYMGLGTDIDTGLPMSLSMNVYAKYQWQNYGAANENEWDGYRFKIKYFVPITDLWGGQLSYIGFTNFDWGSDLGDDSGNAINGIKTRTNNSIASSHILALNYDHWHYSVVARYWHDGGQWNDDAELNFGNGNFNVRSTGWGGYLVVGYNFHHHHHH | soluble |
| AETEKEKQDWIEAVQQSIAETLSDYEVAEKIWFNESNRSCADCKAPDPDWASINLCVVICKKCAGQHRSLGPKDSKVRSLKMDASIWSNELIELFIVIGNKRANDFWAGNLQKDEELHMDSPVEKRKNFITQKYKEGKFRKTLLASLTKEELNKALCAAVVKPDVLETMALLFSGADVMCATGDPVHSTPYLLAKKAGQSLQMEFLYHNKFSDFPQHDIHSEGVLSQESSQSTFLCDFLYQAPSAASKLSSEKKLLEETNKKWCVLEGGFLSYYENDKSTTPNGTININEVICLAIHKEDFYLNTGPIFIFEIYLPSERVFLFGAETSQAQRKWTEAIAKHFVPLFAENLTEADYDLIGQLFYKDCHALDQWRKGWFAMDKSSLHFCLQMQEVQGDRMHLRRLQELTISTMVQNGEKLDVLLLVEKGRTLYIHGHTKLDFTVWHTAIEKAAGTDGNALQDQQLSKNDVPIIVNSCIAFVTQYGLGCKYIYQKNGDPLHISELLESFKKDARSFKLRAGKHQLEDVTAVLKSFLSDIDDALLTKELYPYWISALDTQDDKERIKKYGAFIRSLPGVNRATLAAIIEHLYRVQKCSEINHMNAHNLALVFSSCLFQTKGQTSEEVNVIEDLINNYVEIFEVKEDQVKQMDIENSFITKWKDTQVSQAGDLLIEVYVERKEPDCSIIIRISPVMEAEELTNDILAIKNIIPTKGDIWATFEVIENEELERPLHYKENVLEQVLRWSSLAEPGSAYLVVKRFLTADTIKHCSDRSTLGSIKEGILKIKEEPSKILSGNKFQDRYFVLRDGFLFLYKDVKSSKHDKMFSLSSMKFYRGVKKKMKPPTSWGLTAYSEKHHWHLCCDSSQTQTEWMTSIFIAQHEYDIWPPAGKERKRSITKNPKIGGLPLIPIQHEGNATLARKNIESARAELERLRLSEKCDKESVDSSLKERASMVAHCLEHKDDKLRNRPRKHRSFNCLEDTEPEAPLGQPKGHKGLKTLRKTEDRNSKATLDSDHKLPSRVIEELNVVLQRSRTLPKELQDEQILK | soluble |
| AEVPLPQLRAYTVDASWLQPMAPLQIADHTWQIGTEDLTALLVQTPDGAVLLDGGMPQMASHLLDNMKARGVTPRDLRLILLSHAHADHAGPVAELKRRTGAKVAANAESAVLLARGGSDDLHFGDGITYPPANADRIVMDGEVITVGGIVFTAHFMAGHTPGSTAWTWTDTRNGKPVRIAYADSLSAPGYQLQGNPRYPHLIEDYRRSFATVRALPCDVLLTPHPGASNWDYAAGARAGAKALTCKAYADAAEQKFDGQLAKETAGAR | soluble |
| AFKQLMFPFGMDSKMESGIVMPTTQFWNPIAINNVEAQNDFYSRENLAALKLLQKQAQEPEKLARLLEVYHESLGYNIVRRAEEAKVALSDQTAYCTGINLLSELIEVDVQRDEMIEAIESPKNKMTALVTEAVEQAGVKPDAIFMTGGSARSPILRDAVQTVLPNIPVVSGNYFGSVTAGLARWADVCFK | not soluble |
| AFVQEPLPFDPGALEPYGMSAKTLEFHYGKHHKGYVDNLNKLTQDTELADKSLEDVIRTTYGDAAKVGIFNNAAQVWNHTFFWNSLKPGGGGVPTGDVAARINSAFGSYDEFKAQFKNAAATQFGSGWAWLVLEAGTLKVTKTANAENPLVHGQVPLLTIDVWEHAYYLDYQNRRPDFIDNFLNQLVNWDFVAKNLAAA | soluble |
| AGHMADGELNVDSLITRLLEVRGCRPGKIVQMTEAEVRGLCIKSREIFLSQPILLELEAPLKICGDIHGQYTDLLRLFEYGGFPPEANYLFLGDYVDRGKQSLETICLLLAYKIKYPENFFLLRGNHECASINRIYGFYDECKRRFNIKLWKTFTDCFNCLPIAAIVDEKIFCCHGGLSPDLQSMEQIRRIMRPTDVPDTGLLCDLLWSDPDKDVQGWGENDRGVSFTFGADVVSKFLNRHDLDLICRAHQVVEDGYEFFAKRQLVTLFSAPNYCGEFDNAGGMMSVDETLMCSFQILKPSEKKAKYQYGGLNSGRPVTPPRTANPPKKR | soluble |
| AGHMTSILSRNHVKVKGSGKASIMFAPGFGCDQSVWNAVAPAFEEDHRVILFDYVGSGHSDLRAYDLNRYQTLDGYAQDVLDVCEALDLKETVFVGHSVGALIGMLASIRRPELFSHLVMVGPSPCYLNDPPEYYGGFEEEQLLGLLEMMEKNYIGWATVFAATVLNQPDRPEIKEELESRFCSTDPVIARQFAKAAFFSDHREDLSKVTVPSLILQCADDIIAPATVGKYMHQHLPYSSLKQMEARGHCPHMSHPDETIQLIGDYLKAHV | soluble |
| AGKPDWDWQPAPKNEALIAAVSAAAQEGLNAAYQIREKQARTTKLREVYAAVQAAMAEQAAQAGQPAPDSVGVDNILFDLEARIVRSQILNGEPRIDGRDTRTVRP | not soluble |
| AGKTLYGKLWDIHEVARRDDGSSLIYIDRHILHEVTSPQAFEGLRLAGRPLWRVNANIATPDHNVPTTKAERQGSLLSIADTVSRLQVQTLDENCDDFGIFEFKMNDVRQGIVHVIGPEQGATLPGMTVVCGDSHTSTHGAFGALAHGIGTSEVEHVLATQCLVTQKMKN | not soluble |
| AHHHHHHASAKWVCKICGYIYDEDAGDPDNGISPGTKFEELPDDWVCPICGAPKSEFEKLEDGSNPMPRKISFDPPSFIQLTRKQNKELLEFVLAEFEIYLPITTVHAYLLAKAFKGKNPKEEVQKLRDIVKIVDLTDELLGEIAEIDASLIKDGYFFTLEDLITAVSAITSKSLLVVNGNAEKYSPLRKYGLDCVNYEKFLEEVEVLAREEAKREKII | soluble |
| AHHHHHHASAKWVCKICGYIYDEDAGDPDNGISPGTKFEELPDDWVCPICGAPKSEFEKLEDGSRGAYILLLYLPRNSIIKTKGKVFRLKKGYYAYVGSGMNSLEGRVLRHLRKDKKLHWHIDYLTLIATPLKAYLVPSPVRIEEELSKSLNMVGKVVKGFGSSDLSVPGNLFFFDKDPSEKIEEIVWAFLSRKPKSDDLRQDTS | soluble |
| AHHHHHHGSAKLKEPIIAINFKTYIEATGKRALEIAKAAEKVYKETGVTIVVAPQLVDLRMIAESVEIPVFAQHIDPIKPGSHTGHVLPEAVKEAGAVGTLLNHSENRMILADLEAAIRRAEEVGLMTMVCSNNPAVSAAVAALNPDYVAVEPPELIGTGIPVSKAKPEVITNTVELVKKVNPEVKVLCGAGISTGEDVKKAIELGTVGVLLASGVTKAKDPEKAIWDLVSGIIKE | soluble |
| AHHHHHHGSDIKPGKITVQANPNMPEEIANLFRKQHYELVGRHSGVKLCHWLKKSLTEGRFCYKQKFYGIHSHRCLQMTPVLAWCTHNCIFCWRPMETFLGTEVPEPWDDPAFIVEESIKAQRKLLVGYKGNPKVDKKKFEEAWEPKHAAISLSGEPMLYPYMGDLVEEFHKRGFTTFIVTNGTVPESLREMIKDDKLPTQLYVSLTAPDIESYNKVNIPMIPDGWEKILEFLELMRDIPTRTVVRLTLVKGENMHNPEGYARLIMKARPMFVEAKAYMFVGFSRNRLTINNMPSHEDIREFAEALVKYLPGYHIEDEYEPSRVVLIMRDDVDPSGTGLEGRFIKH | not soluble |
| AHHHHHHGSDWKGRDVISIRDFSKEDIEIVLSTAERLEKELKEKGQLEYARGKILATLFFEPSTRTRLSFESAMHRLGGAVIGFAEASTSSVKKGESLADTIKTVEQYSDVIVIRHPKEGAARLAAEVAEIPVINAGDGSNQHPTQTLLDLYTIRKEFGKIDGLKIGLLGDLKYGRTVHSLAEALAYYDVELYLISPELLRMPRHIVEELREKGVTVYETSDLMSVIGELDVLYVTRIQKERFPDEQEYLKVRGSYQVNLQVLSKAKETLKVMHPLPRVDEIHPEVDKTKHAIYFKQVFNGIPVRMALLGLVLGVI | soluble |
| AHHHHHHGSEELIREVILKNLTLNSAGGIGLEELDDGATIPLGDKHLVFTIDGHTVKPIFFPGGDIGRLAVSGTVNDLAVMGAQPLAIASSLIIEEGFEVSELEKILKSMDETAKEVPVPIVTGDTKVVEDRIGIFVITAGVGVAERPISDAGAKVGDVVLVSGTIGDHGIALMSHREGISFETELKSDVAPIWDVVKAVADAIGWENIHAMKDPTRGGLSNALNEMARKANVGILVREEAIPIRPEVKAASEMLGISPYEVANEGKVVMIVAKEYAEEALEAMKKTEKGRDAAIIGEVIGEYRGKVILETGIGGRRFLEPPLGDPVPRVC | soluble |

— the DeepSol protein solubility set
